Where a chain is given by its changes, count along the chain named.
B1: H4-PC11 humanized antibody (antibody, human IgG1, V domains shown)
VH: EVQLVESGGGLVQPGGSLRLSCAPSPYSANSFSMAWFRQAPGKGREGIACIQAESGSTNVAPSVKGRFTISQDNSKNTLYLQMNSLRAEDTAVYYCAAFKRNVGGCELRPEHWRFWGQGTLVTVSS
notes: not shown: constant region of human IgG1
B2: H5-PC11 humanized antibody (antibody, human IgG1, V domains shown)
VH: B1 VH with G44E
notes: as for B1
B3: H1-PA27 humanized antibody (antibody, human IgG1, V domains shown)
VH: QVQLVESGGGVVQPGRSLRLSCAASGRTESWYRMGWVRQAPGKGLEWVARISGDTNIKYYAGSVKGRFTISRDNSKNTLYLQMSSLRAEDTAVYYCAADRTGATWDYWGQGTLVTVSS
notes: also called hPA27; not shown: constant region of human IgG1
B4: H3-PA27 humanized antibody (antibody, human IgG1, V domains shown)
VH: B3 VH with V37F, L45R, W47V
notes: as for B1
B5: H3-PA45 humanized antibody (antibody, V domains shown)
VH: EVQLVESGGGLVQPGGSLRLSCAASGRTFSRLPMAWFRQAPGKGREFVAAISWSGGSTYYADSMKGRFTISRDNSKNTAYLQMNSLRAEDTAVYYCAAVGDSAPYSATIVYTDARAYAYWGQGTLVTVSS
notes: as for B1
B6: H1-PA45 humanized antibody (antibody, human IgG1, V domains shown)
VH: B5 VH with F37V, R45L, F47W, A49S, A79L
notes: also called hPA45; not shown: constant region of human IgG1
B7: NKp46-PA24 VHH (his and c-Myc labels) (VHH)
VHH: QVQLVESGGGQVQAGGSLRLSCVASGRTYSIYGMGWFRQAPGKEREVVAAINWSSGHTYYADSVKGRFTISKDNAKNTHYLQMNSLKPEDTAVYYCAADSIYGLSFTVKDYDYWGQGTLVTVSS
notes: IPTG-induced E. coli supernatant used in the screening ELISA; also called NKp46-PA24 clone supernatant; not shown: his and c-Myc labels
B8: NKp46-PA29 VHH (his and c-Myc labels) (VHH)
VHH: B7 VHH with Q11W, A14P, V23A, V47I, S54N, K72R, Y102I, L119Q
notes: IPTG-induced E. coli supernatant used in the screening ELISA; also called NKp46-PA29 clone supernatant; not shown: his and c-Myc labels
B9: NKp46-PA11 VHH (his and c-Myc labels) (VHH)
VHH: DVQLVESGGGLVQAGGSLRLSCAASGHTESWYRMGWFRQAPGKGREVVGRISGSPGILYYAGSVKGRFTISRDNAKNTLYLQMTNLKPEDTARYYCAADRTGATWDYWGQGTQVTVSS
notes: IPTG-induced E. coli supernatant used in the screening ELISA; also called NKp46-PA11 clone supernatant; not shown: his and c-Myc labels
B10: NKp46-PA27 VHH (his and c-Myc labels) (VHH)
VHH: B9 VHH with G16A, H27R, G49A, S54D, P55T, G56N, L58K
notes: IPTG-induced E. coli supernatant used in the screening ELISA; also called NKp46-PA27 clone supernatant; not shown: his and c-Myc labels
B11: NKp46-PA2 VHH (his and c-Myc labels) (VHH)
VHH: DVQLVESGGGLVQAGGSLRLSCAASGRTLSSYAMGWFRQAPGLEREFVAAISRISGDTYSPDSVKGRFTISRDNAKNTLYLQMNSLKPEDTAVYYCAASATPSATNIYTNQYAYGDWGQGTQVTVSS
notes: IPTG-induced E. coli supernatant used in the screening ELISA; also called NKp46-PA2 clone supernatant; not shown: his and c-Myc labels
B12: NKp46-PA26 VHH (his and c-Myc labels) (VHH)
VHH: QVQLVESGGGMVQAGGSLRLSCAASGRTFNTIHWFRQAPGKEREFVARIWWIGGATFYADSVKGRFTISRDNTENLVYLQMNSLKPEDTAVYYCAADARYTSHGYYESDYWGPGTQVTVSS
notes: IPTG-induced E. coli supernatant used in the screening ELISA; also called NKp46-PA26 clone supernatant; not shown: his and c-Myc labels
B13: NKp46-PA28 VHH (his and c-Myc labels) (VHH)
VHH: QVQLVESGGGLVQAGDSLRLSCVASGRTFSTYAMGWFRQAPGKEREFVAAISRNADTTYYADSVKGRFTISRDNAKNTVYLQMNSLKPEDTAVYYCAADRYSSNTQVGVARTYYDYWGQGTQVTVSS
notes: IPTG-induced E. coli supernatant used in the screening ELISA; also called NKp46-PA28 clone supernatant; not shown: his and c-Myc labels
B14: NKp46-PA15 VHH (his and c-Myc labels) (VHH)
VHH: QVQLVESGGGLVQAGDSLRVSCAASGRTFSTYAMGWFRQAPGKEREFVAASSRDGTTTYYADSVKGRFTISRDNAKNTVYLQMNSLKPEDTAVYYCAASRPLSTTQVGIASAWYEYWGQGTQVTVSS
notes: IPTG-induced E. coli supernatant used in the screening ELISA; also called NKp46-PA15 clone supernatant; not shown: his and c-Myc labels
B15: NKp46-PA19 VHH (his and c-Myc labels) (VHH)
VHH: QVQLVESGGGLVQPGGSLRLACAASGRTFSTYAMGWFRQAPGKEREFVAAISRNGGTTYYADSVKGRFTISRDNAKNTVYLQMNSLKPEDTAVYYCAASRPLSNTQVGVASAWYEFWGQGTLVTVSS
notes: IPTG-induced E. coli supernatant used in the screening ELISA; also called NKp46-PA19 clone supernatant; not shown: his and c-Myc labels
B16: NKp46-PA3 VHH (his and c-Myc labels) (VHH)
VHH: DVQLVESGGGLVQAGGSLRLSCAASGRTFNTIHWFRQAPGKEREFVARIWWIERTTFYAASVKGRFTISRDNAKNMVYLQMNSLKPEDTAVYYCAADARYTGSRRWESDYWGQGTQVTVSS
notes: IPTG-induced E. coli supernatant used in the screening ELISA; also called NKp46-PA3 clone supernatant; not shown: his and c-Myc labels
B17: NKp46-PA22 VHH (his and c-Myc labels) (VHH)
VHH: QVQLVESGGGLVQAGGSLRLSCTASGRTFETLHWFRQAPGKEREFVARIWWIGGATFYADSVKGRFTISRDNAKNMVYLQMNSLKPEDTAIYYCAADARYTSNRRWESDYWGQGTQVTVSS
notes: IPTG-induced E. coli supernatant used in the screening ELISA; also called NKp46-PA22 clone supernatant; not shown: his and c-Myc labels
B18: NKp46-PC2 VHH (his and c-Myc labels) (VHH)
VHH: QVQLVESGGGLVQPGGSLRLSCAASGFAFSNYNMFWVRQAPGEGFEWISVINRGGDTADYAASVKGRFTISRDNAKNTLYLQMNSLKTEDTAVYYCARDPLGTTRGQGTLVTVSS
notes: IPTG-induced E. coli supernatant used in the screening ELISA; also called NKp46-PC2 clone supernatant; not shown: his and c-Myc labels

Target: T1, human NKp46 (full length, on cells) (human, UniProt O76036 22-304)
Experiment: cell-based or functional assay

T1 sequence (O76036 22-304 Q82K): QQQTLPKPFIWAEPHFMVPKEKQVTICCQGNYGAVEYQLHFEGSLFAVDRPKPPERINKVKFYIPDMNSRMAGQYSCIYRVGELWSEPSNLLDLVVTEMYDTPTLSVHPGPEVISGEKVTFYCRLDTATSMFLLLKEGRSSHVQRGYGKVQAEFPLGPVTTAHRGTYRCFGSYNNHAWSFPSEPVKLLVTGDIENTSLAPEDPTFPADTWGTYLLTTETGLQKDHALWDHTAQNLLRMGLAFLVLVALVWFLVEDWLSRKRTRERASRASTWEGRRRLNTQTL

Row | Binder | EC50 of NK cell activation (CD107a-positive NK cells, plate-coated antibody) [nM] | Top mean fluorescence intensity (Top MFI), NK cell activation (CD107a)
1 | B1 | 1.84 | 19.3
2 | B2 | 0.95 | 23.6
3 | B3 | > 20 | 6.3
4 | B4 | 7.39 | 14.4
5 | B5 | 0.58 | 34
6 | B6 | 7.39 | 30.8

Target: T1, human NKp46 (full length, on cells)
Experiment: flow cytometry on human NKp46-CHOK1 cells
Experimental: (§1) The stable human NKp46-CHOK1 and cynomolgus monkey NKp46-CHOK1 cell lines obtained in Example 2 were cultured, the cells were digested with 0.25% pancreatic enzyme EDTA for about 5 minutes, and the digestion was terminated with the complete medium. After centrifugation at 1,500 rpm for 5 minutes, the supernatant was discarded, the precipitated cells were resuspended with PBS containing 1% BSA and counted. The cell density was adjusted to 1E6/mL and seeded in a corning-3799 96-well culture plate at 100 μL/well. Aftering centrifuging at 1,500 rpm for 5 minutes, the supernatant was discarded and the precipitate was set aside at 4° C. The antibody solutions were prepared with PBS containing 1% BSA, wherein the antibody solution has an initial concentration was 100 nM, then diluted in 10-fold to obtain 7 gradients: 10⁻⁴ nM, 10⁻³ nM, 10⁻² nM, 10⁻¹ nM, […], and 10² nM. The prepared antibody solutions were used to resuspend the cells, 100 μL/well. The resuspended cell culture plates were incubated in a 4° C. freezer for 1 h. After centrifugation at 1500 rpm for 5 minutes, the supernatant was discarded. The precipitate was washed with 160 μL of PBS containing 1% BSA, the supernatant was discarded, and the cells were stored for later use.
(§2) The Secondary antibody (goat anti human IgG Fc PE) solution was prepared with PBS containing 1% BSA, and diluted 1:200. The cells were resuspended with the prepared secondary antibody solution, 100 μL/well, incubated in a 4° C. freezer for 0.5 h. After centrifugation at 1,500 rpm for 5 minutes, the supernatant was discarded, the precipitated cells were washed with 160 μL of PBS containing 1% BSA, the supernatant was discarded, the cells were resuspended with 100 μL of PBS containing 1% BSA, and filtered in 300-mesh gauze. The mean fluorescence intensity of antibody binding to cells was then analyzed on a flow cytometer. The FCS file was exported from the flow cytometer, the mean fluorescence intensity (hereinafter referred to as MFI) of PE channel was analyzed with Flowjo software, and the mean fluorescence intensity obtained was introduced into the Graphpad to analyze the half binding concentration (hereinafter referred to as EC₅₀) and the top mean fluorescence intensity (Top MFI) of the antibody and the cell.

Row | Binder | EC50 [nM] | Top MFI
7 | B1 | 0.305 | 7240
8 | B2 | 0.302 | 7370
9 | B3 | 0.253 | 6000
10 | B4 | 0.153 | 6820
11 | B5 | 0.188 | 5720
12 | B6 | 0.543 | 5090

Target: T2, Cynomolgus monkey NKp46 for immunization, screening, and testing (Kactus, NKP-CM146) (cynomolgus monkey, UniProt Q95JB9 22-254)
T2 construct: Bought protein; also called monkey NKp46 antigen protein; cynomolgus monkey NKp46 antigen
Experiment: ELISA, coated antigen, VHH supernatant, anti-Myc HRP
Experimental: (§3) In order to obtain positive antibodies that can cross-bind to human NKp46 and cynomolgus monkey NKp46, the above libraries were amplified and added into M13K07 helper phage and assembled into bacteriophages. 1×10¹² pfu of immune camel antibody library and immune alpaca antibody library were added thereto, and the phages were incubated with biotinylated human NKp46 protein (8 μg/mL) bound to magnetic beads for 1 h at room temperature. After washing off the unbound bacteriophages with 0.05% PBST, the phages specifically bound to NKp46 were eluted with […] triethylamine, and after gradient dilution of the bacteriophages above, E. coli SS320 in the logarithmic growth phase were infected. After being cultured overnight at 37° C. on plates containing ampicillin, single-clone was picked for IPTG-induced expression, and the supernatant was used for ELISA assay. ELISA plates were coated with […] human NKp46 antigen or cynomolgus monkey NKp46 antigen overnight at 4° C., then washed 3 times with 0.05% PBST and blocked with 5% skim milk at room temperature for 1 h, and washed 3 times with 0.05% PBST. Then 30 µL of induced supernatant was then added into per well, medium were added to negative control wells, the ELISA plates were incubated at room temperature for 1 h, and finally detected with anti-Myc HRP (VHH with his and c-Myc labels were expressed by the induction of IPTG. Sequence clones that had OD450 values of greater than 1.0 for binding to human NKp46 and cynomolgus monkey NKp46 as determined by ELISA, and of which the ratio of OD450 values to that of negative control were greater than 3 were sequenced, thereby obtaining amino acid sequences of 30 variable regions of heavy chain antibodies disclosed in the present disclosure, as shown in Table 2.

T2 sequence (Q95JB9 other isoform, or with tags, fused parts or gaps limits assumed): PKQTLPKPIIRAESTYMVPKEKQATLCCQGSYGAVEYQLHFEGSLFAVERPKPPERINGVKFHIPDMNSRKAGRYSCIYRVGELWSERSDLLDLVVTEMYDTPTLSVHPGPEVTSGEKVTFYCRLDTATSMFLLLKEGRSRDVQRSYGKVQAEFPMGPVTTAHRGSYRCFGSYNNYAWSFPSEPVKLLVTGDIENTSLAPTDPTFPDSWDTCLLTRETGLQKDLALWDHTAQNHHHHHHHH

Row | Binder | OD450 | ratio of OD450 to negative control
13 | B7 | > 1 | > 3
14 | B8 | > 1 | > 3
15 | B9 | > 1 | > 3
16 | B10 | > 1 | > 3
17 | B11 | > 1 | > 3
18 | B12 | > 1 | > 3
19 | B13 | > 1 | > 3
20 | B14 | > 1 | > 3
21 | B15 | > 1 | > 3
22 | B16 | > 1 | > 3
23 | B17 | > 1 | > 3
24 | B18 | > 1 | > 3

Target: T3, Human NKp46 antigen for immunization, screening, and testing (Kactus, NKP-HM146) (human, UniProt O76036 22-255)
T3 construct: Bought protein; also called human NKp46 antigen protein; human NKp46 protein
Experiment: as above
Experimental: as §3

T3 sequence (O76036 other isoform, or with tags, fused parts or gaps limits assumed): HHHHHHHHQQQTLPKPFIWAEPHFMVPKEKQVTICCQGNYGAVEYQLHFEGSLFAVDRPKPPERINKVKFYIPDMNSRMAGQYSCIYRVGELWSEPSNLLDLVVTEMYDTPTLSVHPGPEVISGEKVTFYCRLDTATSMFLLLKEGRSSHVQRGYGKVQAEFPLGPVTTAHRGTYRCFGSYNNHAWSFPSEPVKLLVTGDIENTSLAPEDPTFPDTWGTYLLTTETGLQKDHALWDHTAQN

Row | Binder | OD450 | ratio of OD450 to negative control
25 | B7 | > 1 | > 3
26 | B8 | > 1 | > 3
27 | B9 | > 1 | > 3
28 | B10 | > 1 | > 3
29 | B11 | > 1 | > 3
30 | B12 | > 1 | > 3
31 | B13 | > 1 | > 3
32 | B14 | > 1 | > 3
33 | B15 | > 1 | > 3
34 | B16 | > 1 | > 3
35 | B17 | > 1 | > 3
36 | B18 | > 1 | > 3

Target: T4, cynomolgus monkey NKp46 (full length, on cells) (cynomolgus monkey, UniProt Q95JB9 22-306)
T4 construct: also called cynomolgus monkey NKp46-CHOK1; cynomolgus NKp46-CHOK1
Experiment: flow cytometry on cynomolgus monkey NKp46-CHOK1 cells
Experimental: as §1, §2

T4 sequence (Q95JB9 22-306): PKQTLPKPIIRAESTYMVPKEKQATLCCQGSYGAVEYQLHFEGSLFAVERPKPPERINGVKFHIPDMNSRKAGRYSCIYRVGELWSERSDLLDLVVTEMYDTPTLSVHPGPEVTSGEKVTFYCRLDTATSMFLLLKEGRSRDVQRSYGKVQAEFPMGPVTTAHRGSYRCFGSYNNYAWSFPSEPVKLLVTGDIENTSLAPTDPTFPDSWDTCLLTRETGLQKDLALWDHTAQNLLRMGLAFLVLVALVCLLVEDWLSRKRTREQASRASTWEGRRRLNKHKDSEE

Row | Binder | EC50 [nM] | Top MFI
37 | B1 | 0.274 | 3620
38 | B2 | 0.27 | 3660
39 | B3 | 0.338 | 2540
40 | B4 | 0.072 | 4060
41 | B5 | 1.52 | 3330
42 | B6 | 11.1 | 3120

— US20240141038A1 (SHANGHAI QILU PHARMACEUTICAL RESEARCH AND DEVELOPMENT CENTRE, published 2024)
